Experimental data from the nanobody polyreactivity screen of Harvey et al. (2022).

Test: yeast display, Sf9 membrane polyspecificity reagent, FACS + sequencing; frameworks hold sequencing errors
How it was run: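 Nanobodies from a synthetic yeast display library (Saccharomyces cerevisiae BJ5465), induced 36–48 hours with galactose, were stained 1 hour at 4 °C with 10% biotinylated, detergent-solubilized Sf9 membrane reagent, enriched on streptavidin microbeads, then FACS-sorted. Anti-HA (expression) and streptavidin (reagent binding) fluorescence set low and high (top ~1%) gates. Polyreactivity labels come from the gate of origin. Genes were colony-PCR amplified, MiSeq 2 × 250 sequenced and filtered by CDR length.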

| Sequence | polyreactivity (PSR sort gate) |
| --- | --- |
| QVQLVESWGGLVQAGCSLRLSCAASGRTFRSYAMGWYRQATGKERELVAAISRNGGRTYYADSVKGRFTMSRDNAKYTVYSQMNSLKPEDTAVYYCAAVGDFDVYYWGQATQVTVSS | high polyreactivity |
| QVQLVESWGGLVQAGGRLRLSCAASGRIFWRYAMGWYRQAPGKERELVAAISGRGASTYYADSVKGRFTISRDNAKNTVYLQMNSLKPEDTAVYYCAASLRYRYRYYASDYGYWGQGTQVTVSS | high polyreactivity |
| QVQLVESWGGLVQAGGSLRLICAASGRIFYPYAMGWYRQAPGKERELVASITSGGGSYYADSVKGRFTISRDNAKNTVYLQMNSLKPEDTAVYYCAAPYITPYGTYVFSSVYWGQGTQVTVSS | low polyreactivity |
| QVQLVESWGGLVQAGGSLRLSCAASGFIFSSYGMGWYRQAPGKERELVADISGGGSTNYADSVKGRFTISRDNAKNTVYLQMISLNPEDTAVYYCNAQLIRSAAYDYWGQGTQVTVSS | low polyreactivity |
| QVQLVESWGGLVQAGGSLRLSCAASGFTFDYNGMGWYRQAPWKERELVAGIRWSGGSTYYADSVKGRFTISRDNAKNTVSLQMNSLKPEDTAFYYCAADTLPAEYEYDYWGQGTQVTVSS | low polyreactivity |
| QVQLVESWGGLVQAGGSLRLSCAASGFTFVSYAMGWYRQAPGKERELVAAISKRGGSTSYADSVKGRFTISRDNAKNTVYLQMNSLKPEDTAVYYCYNRSYAWSPHVDYWGQGTQVTVSS | high polyreactivity |
| QVQLVESWGGLVQAGGSLRLSCAASGGTFRKNTMGWYRQAPGKERELVAAITRRADRTYYADSVKGRFTISRDNAKHTVYLQMNSLKPEDTAVYYCNAPPPPTKVGGYDYWGQGTQVTVSS | high polyreactivity |
| QVQLVESWGGLVQAGGSLRLSCAASGLTFVKNAMGWYRQAPGKERELVAAITRTGGSTYYADSVKVRFTISRDNAKNTFYLQMNSLKPEDPAVYYCASRTPSPRRTKTAVDYWGQGTQVTVSS | high polyreactivity |
| QVQLVESWGGLVQAGGSLRLSCAASGRTFDGNAMGWYRQAPGKEGEFVATISTDGGSTHYADSVKGRFTISRDNAKNTVYLQMNSLKPEDTAVYYCAADTPWYDDNYDYWGQGTQVTVSS | low polyreactivity |
| QVQLVESWGGLVQAGGSLRLSCAASGRTFYSNAMGWYRQARGNERELVAAISRSGGTTYYADSVKGRFTISRDNAKNTVYLLMNSLKPEDTAVYYCNTLRYGTTGKYDYWGQGTQVTVSS | high polyreactivity |
| QVQLVESWGGLVQAGGSLRLSCAASGRTFYYYTMGWYRQAPGKEREFVAAISWSGGGTYYADSVKGRFTISRDNAKNTDYLQMNILKPEDTAVYYCATGPRIRYDYWGQGTQVNVSS | high polyreactivity |
| QVQLVESWGGLVQAGGSLRLSCAASGSIFDYNAMGWYRQAPGKERELVAAISSGGSTNYADSVKGRFTISRDNAKNTVYLQMNSLKPEDTAVYYCNTGLYWLGYWPDDYWGQGTQVTVSS | low polyreactivity |
| QVQLVESWGGLVQAGGSLRLSCAASGSILYYYVMGWYRQAPGKERELVAAINSGGNTNYADSVKGRFTISRDNAKNTVYLQMNSLKTVDTAVYYCATASGDGVRTDFGNEYDYWGQGTQVNVSS | low polyreactivity |
| QVQLVESWGGLVQAGGSLRLSCAASGSNFYTYAMGWYRQAPGKERDFVAAITWSGGRTYYADSVKGRFTISRDNAKNSVYLQMNSLKPEDTAVYYCAATSWWATTGFDYWGQGTQVTVSS | low polyreactivity |
| QVQLVESWGGLVQAGGSLRLSCAASGSTFVAYAMGGYRQAPGKEREFVAGISVRGGSTYYADSVKGRFTISRDNAKNTVYLQMNSLKPEDTAVYYCAARRVDTRVHVRYRYYYWGQGTQVTVSS | high polyreactivity |
| QVQLVESWGGLVQAGGSLRLSCAASGSTISANALGWDRQAPGTEREWVASISRRGGSPYYADSVKGRFTISRDKATNTVYLQMNSLKPEDTAVYYSGAVFRYYARTFDYWGQGTQVSVSS | high polyreactivity |

| Sequence | polyreactivity (PSR sort gate) |
| --- | --- |
| QVQLVESWGGLVQAGGSLRLSCDASGSTFIPKDMGWYRQAPGKERELVAAITVSGDDTYYADSVKGRFTISRDNAKNTVYIQMNILKPEVTAVYYCAAEWGLYVGQYEYCGQGTQVTVSS | low polyreactivity |
| QVQLVESWGGLVQAGGSLRLSCDASGSTLYHNVMGWYRQAPGKERDLVASIDTGDSTNYADSVKGRFSISRDNAKNTVYLQMNSLKPEDTAVSYCNADSYTALNNRGYDYWGLGTQVTVSS | low polyreactivity |
| QVQLVESWGGLVQAGGSLRLSSPASGFTFFYYAMGWYRPAPGKERELVAAITSGGSTKNADSVKGRFTISRDNAKNSVYLQMNSLKPEDTAVYYCAARVRISGSPRILYNYWGQGTQVTVSS | high polyreactivity |
| QVQLVESWGGLVQAGGTLSLSCADSGLIFYFYDRGWYRQAPGKESEFVATISSTGGSTYYADSVKGRFTISRDNAKNTVYLQMNSVKPEDTAVYVCADRGWFPGFRYDYWGQGTQVTVSS | low polyreactivity |
| QVQLVESWGGLVQAGRSHRLSCAASGIIFDGNALGWYRQAPRKEREMVAAISSSGARTYYADSVKGRFTISRDNAKNSVYLLMNSLKPEDTAVYYCNAAYFNWYTHVWNDYWGQGTQVTVSS | high polyreactivity |
| QVQLVESWGGLVQSGGSLRLICAASGSTNQYNAMGWYRQAPGKERELVAAISLSGATTYYADSVKGRCTISRDPAKNTVYLQMNIQKPEDTSVYYCAADFGWFYDCVAVWFIRILGDYWGQGTQVTVSS | low polyreactivity |
| QVQLVESWGVLVQAGGSLRLSCAASGSIFTYYTMGWYRPEPGKERDFVARISSGGSTNYADSVKGRFTISRDNAMNTVYLQMNSLKPEDTAVYYCAAVSSYSPYRLTYYYWGQGTQVTVSS | high polyreactivity |
| QVQLVESWGVLVQAGGSLRLSCAAYGSIFRLYAMGSYRTAPGTARELVAAITSGDSTNYADSVKGRFTISRDNAKNTVYLQMNSLKPEDTAVYYCNSGRISVRVTSEQYAYHEYYYWGQGTQVTVSS | high polyreactivity |
| QVQLVESWRGLDQAGGSLRLICSASGGIFKGYSMGWFRQAPGKERELVAVISSRVGSTYYADSLKGRFTISRDNEKNTVYLQMNSQKPEHTAVYYCAKRRYAAVNYNYWGQGTQVTVSS | high polyreactivity |
| QVQLVETAGGLVKAGCSLRLSCAASGRIFYIYAMAWYRQSPGKESELLAAISTGGGGTYYADSVKGRFTISRDNAKNTVYLQMNSLKPEDTAVYYCAATSPLSLDEDYWGQGTQVTVSS | high polyreactivity |
| QVQLVETGAGIVQAGGILRLSCAASGSIFQGNAIGWYRQAPGKERELVAAISGGTSTYYADSEKGRFTISRDNAKNTVYLEMNSLKPEDTAVYYCAARFYGHPYWYDYWGLGTQVTVSS | low polyreactivity |
| QVQLVETGAGLVQAGGSLRLSSAASGRTLYPYAMGWSRQSPGNERELVAAISSRGGSTYYADSVKGRFTISRDIAKNTVYLQMNSLKPEDTAVYYCAKTYRKILSITGDVPWTDYYWGQGTQVTVSS | low polyreactivity |
| QVQLVETGGCLVQAGGSLRLSCAASGFIFYIYAMGWYRQAPGKERELVAAITSGGSTYYADSVKGRFTITRDNAKNTVYLQMNSLKPDDTAVYYCASESYYGYDYWGQGTQVTVSS | low polyreactivity |
| QVQLVETGGGIVQAGGRLRLSCAASGFTFYANTMGWYRQAPGKERELVATIRSTGSTKYADSVKGRFTISRDNAMNTVYLQMNSLNPEDTAVYYCAKRDRYYGVAVEGIRYDYWGQGTQVTVSS | high polyreactivity |
| QVQLVETGGGIVQAGGSLRLSCAASGFTFFRNAMGWYRQAPGKERELVAAISGSGGSTYYADSVKGRFTISRDNAKNKVYLQMNSLKPEDTAVYYCNAQKQIREPGNERLNYWGQGTQVTVSS | low polyreactivity |
